Reference: PMC2858704

target: T1, PefR (Gbs1402) (Streptococcus agalactiae NEM316) (UniProt Q8E4J9); experiment: EMSA; details: EMSA: 5% glycerol, 20 mM Tris-HCl pH 8, 50 mM KCl, 0.2 mM MgCl2, 1 mM EDTA, 0.2 mM DTT, 0.3 uM BSA, 15 ul, 37 C 20 min; 8% PAGE in 1x TBE, ethidium bromide …
T1 sequence: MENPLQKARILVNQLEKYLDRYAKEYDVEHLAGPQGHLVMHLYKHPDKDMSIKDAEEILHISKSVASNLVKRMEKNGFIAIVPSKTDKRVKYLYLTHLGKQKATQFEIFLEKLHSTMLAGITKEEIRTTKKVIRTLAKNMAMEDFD

Row | Sequence | binding
1 | ATTTGTATTTTACTATCATTTACATTAAAAATCAATATAAATTTATAATTAAAAATATAAAAAGCGAACATATATTTTTAATATTAAAAAGTAAGCGAAATCATTTTTTATTTGACGAATGATAGGTTTTTTTTAGAAATATTAATGTAAAAATAGTTCTCACGGTAACTTTTAATTGACAATTAATAAAGGTTGTTTTAAAATAGTTCTCACGATAACTATTAAAGGAGTATTATTATGGAGAATC (double strand) [pefRCD promoter fragment (248 bp)] | binds
2 | CTTGTTGAGCCGTTGACAACGAAATGTTAAAGCTATTCATCAAAGTTGGGATAGCCGTTCCCAAACTTGTCTGATTTAACACCCCTGCAAATGTAGCAATCAACAATAAGGTGATC (double strand) [control pefA internal fragment (116 bp)] | no binding
3 | GCGTAGAAGTCATTAAATGGAGAACGCTTTATTAGGAAAAATAGTGGGGAGATATTTTAGAAAAAGGAAATAATGATGTTTTGAAAAAAATAGTTTCTATGAGAATCTTTTTCTTGACAATAAAATTTAGCTATTATAAAATAGTTCTCACGATAACTAAAATAATGATTTTTTCAGAAAATAATATTATTTATTGATTAAAAAATCAAAAAATAACCTTATAAGACCTATTTGTTATTCTTAAAAGATATTAGTTAAAATCAGAAATAGAGATTGGAGATA (double strand) [pefAB promoter fragment (281 bp)] | binds
